# Data: patent US20190234935A1
# Target: mouse GFRAL (endogenous, wild type mice against Gfral-/- mice) (mouse) (UniProt Q6SJE0)
# Assay: cell-based or functional assay
# Sequence of mouse GFRAL (endogenous, wild type mice against Gfral-/- mice) (mouse) (Q6SJE0 20-393): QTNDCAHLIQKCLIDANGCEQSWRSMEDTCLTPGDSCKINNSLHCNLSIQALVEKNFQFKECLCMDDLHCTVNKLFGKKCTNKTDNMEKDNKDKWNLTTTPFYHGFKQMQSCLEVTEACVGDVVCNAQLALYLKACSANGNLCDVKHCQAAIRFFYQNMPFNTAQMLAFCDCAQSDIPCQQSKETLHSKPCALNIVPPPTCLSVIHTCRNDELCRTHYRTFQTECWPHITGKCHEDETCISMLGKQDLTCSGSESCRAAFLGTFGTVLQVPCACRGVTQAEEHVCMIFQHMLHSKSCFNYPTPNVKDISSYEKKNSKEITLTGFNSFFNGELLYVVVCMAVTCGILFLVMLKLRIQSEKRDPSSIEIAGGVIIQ
substance,measurement,value
recombinant human GDF15 (generated by Janssen BioTherapeutics) (from UniProt Q99988 197-308) (ligand),decrease in 12-hour food intake after a single subcutaneous administration of 16 nmol/kg,> 40%
